This note sets out measurements from patent US7589207B2, “Cyclohexyl compounds as CCR5 antagonists” (SmithKline Beecham Corporation, priority 2002, dated 2009).

For this test, the target named is T1, human CCR5 chemokine receptor (Homo sapiens, UniProt P51681).
T1 construct: host or cells: Chinese Hamster Ovary (CHO) cells; membranes prepared from the cell pellet
The test can be described thus: CC-Chemokine Receptor-5 binding by Scintillation Proximity Assay (CCR5 SPA), displacement of 125I-MIP1α. The note with it: standard compound, 14-point concentration-response curve in triplicate, starting concentration 1 μM. On the procedure:
CC-Chemokine Receptor-5 Binding by Scintillation Proximity Assay (CCR5 SPA) Scintillation Proximity Assay for the Human CC-Chemokine Receptor, CCR-5
This protocol describes a high-throughput screen using SPA binding to identify compounds that inhibit binding of ^125I-MIP1α to the human CCR5 chemokine receptor.
Human CCR5 receptors were expressed in Chinese Hamster Ovary (CHO) cells, registration # 12025. Cells were grown in suspension and a 50 to 80 ml CCR5 cell pellet was prepared. […]
The saturation curve binding experiment is performed by adding varying amounts of [^125I]MIP1α (0-8.5 nM to membranes and beads in concentrations chosen from the optimal protein/bead ratio. The data is analyzed using a non-linear curve-fitting program. The Kd and Bmax are derived from the curve. […]

T1 sequence (P51681 whole entry): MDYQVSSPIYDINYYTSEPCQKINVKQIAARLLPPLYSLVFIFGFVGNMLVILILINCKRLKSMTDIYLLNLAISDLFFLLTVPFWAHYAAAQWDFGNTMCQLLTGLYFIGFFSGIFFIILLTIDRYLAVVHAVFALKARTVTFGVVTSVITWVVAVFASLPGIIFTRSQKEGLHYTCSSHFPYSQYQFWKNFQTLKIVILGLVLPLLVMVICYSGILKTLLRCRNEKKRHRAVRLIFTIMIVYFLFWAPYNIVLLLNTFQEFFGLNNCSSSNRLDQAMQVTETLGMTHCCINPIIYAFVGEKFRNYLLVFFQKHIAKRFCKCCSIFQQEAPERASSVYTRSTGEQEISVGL

As to “MIP1α: natural chemokine ligand of CCR5, used as the standard compound in the CCR5 SPA binding assay”, the “average historical pKi” value is listed as 7.6.
